Measured values: article PMC4102245, “A molecular model for the role of SYCP3 in meiotic chromosome organisation” (eLife, 2014)

Molecular target: T1, SYCP3 dCt6 dBP1+2 (human, UniProt Q8IZU3 1-230, K52A;R53A;R54A;K55A;K56A;R57A;K88A;R89A;K90A;R91A)
T1 sequence: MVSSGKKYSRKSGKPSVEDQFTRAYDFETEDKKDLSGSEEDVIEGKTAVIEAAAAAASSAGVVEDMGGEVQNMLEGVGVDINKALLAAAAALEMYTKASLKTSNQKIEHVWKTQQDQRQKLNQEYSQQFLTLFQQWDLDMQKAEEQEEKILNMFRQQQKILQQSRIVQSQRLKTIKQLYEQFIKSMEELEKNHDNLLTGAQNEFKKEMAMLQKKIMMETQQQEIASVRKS
Test: fluorescence anisotropy; up to 20 uM protein; 20 mM Tris pH 8.0, 150 mM KCl; FA at 25 C with 25 nM DNA (0-20 uM protein); EMSA 5 min at 4 C with 18.7 uM (per bp) DNA (0-40 uM protein), 0.5% agarose, 0.5x TBE
Settings: protein: recombinant; tags: N-terminal His6, TEV-cleaved; chain copies: 4; label: 5' FAM

B1: 60 bp FAM-dsDNA (dsDNA)
DNA 1: ATGGTGTGTGTAGGTTAATGTGAGGAGGAGAGGTGAAGAAGGAGGAGAGAAGAAGGAGGC
DNA 2: GCCTCCTTCTTCTCTCCTCCTTCTTCACCTCTCCTCCTCACATTAACCTACACACACCAT
- binding result: no binding
